The target of one assay is HLA-C*03:03. Briefly: IEDB peptide-MHC binding, purified MHC/direct/fluorescence; filed as Kd, often an IC50 or EC50 that approximates it; ≥ and ≤ were set here for values at or beyond the usual limits of such assays. To be noted: source organism: Listeria monocytogenes serotype 4b str. H7858.
Another assay deals with HLA-C*12:03. The assay is described as above. To be noted: source organism: Listeria monocytogenes serotype 4b str. H7858.
For the next assay, the target named is HLA-C*05:01. Described as above. To be noted: source organism: Listeria monocytogenes serotype 4b str. H7858.
In the next assay the target is HLA-B*15:02. Kind of assay: IEDB peptide-MHC binding, purified MHC/competitive/fluorescence; filed as Kd, often an IC50 or EC50 that approximates it; ≥ and ≤ were set here for values at or beyond the usual limits of such assays.
Another assay addresses HLA-A*02:03. Described as above.
In the next assay the target is HLA-B*15:17. The assay is described as above.
A further assay concerns the target HLA-A*02:01. Described as above.
The target in another assay is HLA-A*02:11. Described as above.
Another assay deals with HLA-A*02:16. Described as above.
The next assay deals with HLA-B*39:01. The description is as above.
The next assay addresses HLA-B*57:01. Described as above.
For the next assay, the target named is HLA-B*51:01. The assay is described as above.
The target in the next assay is HLA-A*29:02. The assay is described as above.
The next assay deals with HLA-A*02:12. The assay is described as above.
In a further assay the target is HLA-A*23:01. The description is as above.
The target in another assay is HLA-A*68:02. The description is as above.
In another assay the target is HLA-B*18:01. The description is as above.
The next assay concerns the target HLA-A*03:01. The assay is described as above.
The next assay has as its target HLA-A*69:01. The description is as above.
Another assay has as its target HLA-A*24:03. Described as above.
Another assay addresses HLA-A*26:01. Described as above.
A further assay addresses HLA-B*46:01. The description is as above.
A further assay deals with HLA-B*27:03. Described as above.
The target of the next assay is HLA-B*15:01. The assay is described as above.
For a further assay, the target named is HLA-A*02:19. The description is as above.
A further assay addresses HLA-A*31:01. The description is as above. To be noted: source organism: Entamoeba histolytica HM-1:IMSS.
The target in the next assay is HLA-C*07:02. Kind of assay: IEDB peptide-MHC binding, purified MHC/direct/fluorescence; filed as Kd, often an IC50 or EC50 that approximates it; ≥ and ≤ were set here for values at or beyond the usual limits of such assays. The conditions noted are these: source organism: Yersinia pestis Nepal516.
The target in the next assay is HLA-B*08:01. Briefly: IEDB peptide-MHC binding, purified MHC/competitive/fluorescence; filed as Kd, often an IC50 or EC50 that approximates it; ≥ and ≤ were set here for values at or beyond the usual limits of such assays. To be noted: source organism: Yersinia pestis Nepal516.
The mark [1] stands for this setting: source organism: Orthomarburgvirus marburgense.
The mark [2] stands for this setting: source organism: Entamoeba histolytica HM-1:IMSS.
[3] abbreviates: source organism: Vibrio cholerae V52.
The mark [4] stands for this setting: source organism: Yersinia pestis Nepal516.
[5] abbreviates: source organism: Escherichia coli E22.

Where only a bound is given, the exact number is not on record here.

With FLMYPNNIF, the Kd (in general, the free concentration of one partner at which half of the binding sites on the other are occupied at equilibrium, for simple one-to-one binding) with HLA-C*03:03 amounted to 0.015 µM; with HLA-C*12:03 it was 0.178 µM; with HLA-C*05:01, 0.266 µM; in the assay with HLA-B*15:02 (source organism: Listeria monocytogenes serotype 4b str. H7858), 0.0057 µM.

With GIADFIIFK, the Kd with HLA-A*02:03 (setting [1]), with HLA-B*15:17 (setting [1]), with HLA-A*02:01 (setting [1]), with HLA-A*02:11 (setting [1]), with HLA-A*02:16 (setting [1]) and in the assay with HLA-B*39:01 (setting [1]) was at least 20 µM throughout. Besides, the dissociation constant (Kd) with HLA-B*57:01 (setting [1]), in the assay with HLA-B*51:01 (setting [1]), with HLA-A*29:02 (setting [1]), with HLA-A*02:12 (setting [1]), in the assay with HLA-A*23:01 (setting [1]) and with HLA-A*68:02 (setting [1]) was at least 20 µM throughout. In addition, the Kd with HLA-B*18:01 (setting [1]) is at least 20 µM; with HLA-A*03:01 (setting [1]), 0.188 µM; in the assay with HLA-A*69:01 (setting [1]), at least 20 µM; in the assay with HLA-A*24:03 (setting [1]), at least 20 µM; with HLA-A*26:01 (setting [1]) it was at least 20 µM; with HLA-B*46:01 (setting [1]) it was at least 20 µM. The Kd with HLA-B*27:03 (setting [1]), in the assay with HLA-B*15:01 (setting [1]) and with HLA-A*02:19 (setting [1]) was at least 20 µM in each case.

The sequence HLWNHNQQM came in with a Kd with HLA-B*15:02 (source organism: Venezuelan equine encephalitis virus) of 0.0499 µM.

As to IGKMNKHYK, the Kd in the assay with HLA-A*02:03 (setting [2]), in the assay with HLA-B*15:17 (setting [2]), with HLA-A*02:01 (setting [2]), with HLA-A*02:11 (setting [2]), in the assay with HLA-A*02:16 (setting [2]) and in the assay with HLA-B*39:01 (setting [2]) was at least 20 µM throughout. Further, the Kd is at least 20 µM with HLA-B*57:01 (setting [2]); at least 20 µM in the assay with HLA-B*51:01 (setting [2]); at least 20 µM in the assay with HLA-A*29:02 (setting [2]); at least 20 µM with HLA-A*02:12 (setting [2]); 0.16 µM with HLA-A*31:01; at least 20 µM in the assay with HLA-A*68:02 (setting [2]). Also, the Kd with HLA-B*18:01 (setting [2]), with HLA-A*03:01 (setting [2]), with HLA-A*69:01 (setting [2]), with HLA-A*24:03 (setting [2]), in the assay with HLA-A*26:01 (setting [2]) and in the assay with HLA-B*46:01 (setting [2]) was at least 20 µM each time. Moreover, the Kd with HLA-B*27:03 (setting [2]), with HLA-B*15:01 (setting [2]) and with HLA-A*02:19 (setting [2]) was at least 20 µM each time.

IGYRLGMGK: the Kd in the assay with HLA-A*02:03 (setting [3]), with HLA-B*15:17 (setting [3]), in the assay with HLA-A*02:01 (setting [3]), with HLA-A*02:11 (setting [3]), with HLA-A*02:16 (setting [3]) and with HLA-B*39:01 (setting [3]) was at least 20 µM each time. Besides, the Kd with HLA-B*57:01 (setting [3]), with HLA-B*51:01 (setting [3]), with HLA-A*29:02 (setting [3]), in the assay with HLA-A*02:12 (setting [3]), with HLA-A*23:01 (setting [3]) and with HLA-A*68:02 (setting [3]) was at least 20 µM in each case. Besides, the Kd with HLA-B*18:01 (setting [3]) was at least 20 µM; with HLA-A*03:01 (setting [3]) it was 0.0135 µM; with HLA-A*69:01 (setting [3]), at least 20 µM; with HLA-A*24:03 (setting [3]) it was at least 20 µM; with HLA-A*26:01 (setting [3]), at least 20 µM; with HLA-B*46:01 (setting [3]), at least 20 µM. Moreover, the Kd with HLA-B*27:03 (setting [3]), with HLA-B*15:01 (setting [3]) and with HLA-A*02:19 (setting [3]) was at least 20 µM throughout.

As to MMQGTPYVY, the dissociation constant Kd in the assay with HLA-B*15:02 (source organism: Vibrio antiquarius) worked out at 0.0059 µM.

In the assay with HLA-B*15:02 (source organism: Burkholderia mallei JHU), SLFVRSAGQ displayed a Kd of at least 20 µM.

As to YIYTRSFQM, the Kd with HLA-C*07:02 amounted to 0.163 µM; with HLA-A*02:01 (setting [4]), 0.0004 µM; in the assay with HLA-B*08:01, 0.0487 µM; with HLA-A*26:01 (setting [4]), 0.593 µM; with HLA-B*15:01 (setting [4]) it was 0.351 µM.

As to YQTYVSPGA, the Kd with HLA-B*15:17 (setting [5]) was at least 20 µM; in the assay with HLA-A*02:01 (setting [5]) it was 0.0004 µM; with HLA-A*02:11 (setting [5]), at least 20 µM; with HLA-A*02:16 (setting [5]), at most 0.0001 µM; in the assay with HLA-B*57:01 (setting [5]) it was at least 20 µM; with HLA-B*51:01 (setting [5]), at least 20 µM. In addition, the Kd in the assay with HLA-A*29:02 (setting [5]), with HLA-A*02:12 (setting [5]), with HLA-A*23:01 (setting [5]), with HLA-B*18:01 (setting [5]), in the assay with HLA-A*03:01 (setting [5]) and with HLA-A*69:01 (setting [5]) was at least 20 µM in each case. Further, the Kd with HLA-A*24:03 (setting [5]), with HLA-A*26:01 (setting [5]), with HLA-B*46:01 (setting [5]), in the assay with HLA-B*27:03 (setting [5]), with HLA-B*15:01 (setting [5]) and with HLA-A*02:19 (setting [5]) was at least 20 µM throughout.

Source of the values: the Immune Epitope Database (IEDB).
